Data: patent US20010055591A1 (WISYS TECHNOLOGY FOUNDATION, published 2001)
Changes are numbered by the printed parent chain. Names may count otherwise.

B1: AT-P3R (antithrombin with the PCI reactive site loop and an arginine at P3) (other)
chain: HGSPVDICTAKPRDIPMNPMCIYRSPEKKATEDEGSEQKIPEATNRRVWELSKANSRFATTFYQHLADSKNDNDNIFLSPLSISTAFAMTKLGACNDTLQQLMEVFKFDTISEKTSDQIHFFFAKLNCRLYRKANKSSKLVSANRLFGDKSLTFNETYQDISELVYGAKLQPLDFKENAEQSRAAINKWVSNKTEGRITDVIPSEAINELTVLVLVNTIYFKGLWKSKFSPENTRKELFYKADGESCSASMMYQEGKFRYRRVAEGTQVLELPFKGDDITMVLILPKPEKSLAKVEKELTPEVLQEWLDELEEMMLVVHMPRFRIEDGFSLKEQLQDMGLVDLFSPEKSKLPGIVAEGRDDLYVSDAFHKAFLEVNEEGSEAAASTAVVIRFRSARPNRVTFKANRPFLVFIREVPLNTIIFMGRVANPCVK
notes: I derived them from P1′ = serine 394 of mature antithrombin
B2: AT-pos (antithrombin H-helix mutant D309K, E310K, E312K, E313K) (other, Homo sapiens, UniProt P01008 33-464, looked up)
chain: B1 chain with D309K, E310K, E312K, E313K, R391A, F392G, A395L, R396N
notes: mature; The residue numbers appear to count on mature antithrombin; also called H-helix mutant Poly-K
B3: AT-rsl (antithrombin with the reactive site loop sequence of PCI) (other, Homo sapiens, UniProt P01008 33-464, looked up)
chain: B1 chain with R391T
notes: mature; I derived them from P1′ = serine 394 of mature antithrombin; also called AT-rs1; Reactive site loop mutant

Assays:
[1] = molecular target: T1, thrombin bound to 4-6 TM (recombinant EGF repeats 4-6 of thrombomodulin) (human, UniProt P00734 328-622; P07204 363-483); assay: discontinuous thrombin inhibition assay, chromogenic substrate; thrombin with 4-6 TM
Description: (§1) Serine Protease Inhibition Assays. The rates of inhibition of the serine proteases thrombin, factor Xa and APC in the presence and absence of heparin were measured using discontinuous assays under pseudo-first order rate conditions as described previously (Phillips et al., 1994; Rezaie et al., 1995). Protein was diluted in TBS buffer containing 0.1 mg/ml BSA, 0.1% PEG 8000, and 0.01% azide to a final reaction volume of 50 μl. […] Substrates used were Spectrozyme TH (SpTH) for thrombin and trypsin, PCA (SpPCA) for APC, and FXa (SpFXa) for Factor Xa (American Diagnostica, Greenwich, Conn.). Absorbances were determined using a SpectraMax Plus plate reader (Molecular Devices, Sunnyvale, Calif.). Absorbance is directly related to residual protease activity. In assays containing heparin, 1 mg/ml Polybrene was added to the substrate to block further heparin binding during substrate development. For heparin template curve data, varying concentrations (0-1000 μg/ml) of unfractionated heparin were added and proteins were diluted in HNPN buffer. For remaining heparin assays, the resulting optimal heparin concentration (5 μg/ml) was used. […] TM was either purified rabbit TM (RTM) or recombinant 4-6 TM (provided by Dr. Alireza Rezaie). Second-order rate constants of thrombin inhibition were determined using the following equation: […]
(§2) Inhibition in the presence of TM.

thrombin (free thrombin) [2] = molecular target: T2, thrombin (free thrombin) (human, UniProt P00734 328-622); assay: ratio of κ2 with heparin to κ2 without heparin
Description: as §1
(§3) Inhibition in the presence of heparin. Thrombin inhibition is accelerated (300- to 1000-fold) in the presence of heparin (Olson et al., 1992). […] Changes in heparin binding domains may alter the concentration of heparin required for the fastest rate of thrombin inhibition.

[3] = molecular target: T1, thrombin bound to 4-6 TM (recombinant …); assay: ratio of κ2 with 4-6 TM to κ2 on free thrombin
Description: as §1, with “Protein” for “Serine Protease Inhibition Assays. The rates of inhibition of the serine proteases thrombin, factor Xa and APC in the presence and absence of heparin were measured using discontinuous assays under pseudo-first order rate conditions as described previously (Phillips et al., 1994; Rezaie et al., 1995). Protein”
as §2

thrombin (free thrombin) [4] = molecular target: T2, thrombin (free thrombin); assay: discontinuous thrombin inhibition assay, chromogenic substrate; with 5 µg/ml heparin
Description: as §1, §3

Factor Xa = molecular target: T3, Factor Xa (human, UniProt P00742 41-179; P00742 235-488, limits assumed); assay: discontinuous Factor Xa inhibition assay, chromogenic substrate SpFXa
T3 construct: also called FXa
T3 sequence (P00742 41-179 limits assumed, form in doubt, chain 1 of 2): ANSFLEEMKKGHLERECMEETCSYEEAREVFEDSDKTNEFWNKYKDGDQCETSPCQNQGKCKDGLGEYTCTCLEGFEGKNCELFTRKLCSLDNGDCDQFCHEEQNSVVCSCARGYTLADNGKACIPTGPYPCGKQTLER
T3 sequence (P00742 235-488 limits assumed, form in doubt, chain 2 of 2): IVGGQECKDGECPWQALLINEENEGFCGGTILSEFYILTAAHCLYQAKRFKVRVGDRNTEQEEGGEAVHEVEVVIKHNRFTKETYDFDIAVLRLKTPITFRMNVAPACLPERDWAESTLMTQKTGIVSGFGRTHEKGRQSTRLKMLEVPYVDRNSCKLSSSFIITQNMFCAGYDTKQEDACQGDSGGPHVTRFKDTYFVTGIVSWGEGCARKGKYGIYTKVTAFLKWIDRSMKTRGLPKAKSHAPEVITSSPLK
Description: as §1

trypsin = molecular target: T4, trypsin; assay: discontinuous trypsin inhibition assay, chromogenic substrate SpTH
T4 construct: The source of the trypsin is doubtful, so see recheck
Description: as §1
Trypsin inhibition assays were performed to examine the overall activity of each mutant protein.

thrombin (free thrombin) [5] = molecular target: T2, thrombin (free thrombin); assay: discontinuous thrombin inhibition assay, chromogenic substrate; no TM
Description: as §1, §2

thrombin (free thrombin) [6] = molecular target: T2, thrombin (free thrombin); assay: discontinuous thrombin inhibition assay, chromogenic substrate; no heparin
Description: as §1, §3

[7] = molecular target: thrombin bound to rabbit thrombomodulin (RTM) (human; rabbit, UniProt P00734 328-622; Q8HZ48 21-576); assay: ratio of κ2 with RTM to κ2 on free thrombin
Description: as §1

[8] = molecular target: T1, thrombin bound to 4-6 TM (recombinant …); assay: ratio of κ2 with 4-6 TM to κ2 on free thrombin; remark: listed apart in the source

Binder	second-order rate constant (κ2) of inhibition [1] [M⁻¹ s⁻¹]	Ratio (+/-) of κ2 with and without heparin (thrombin (free thrombin) [2]) [fold]	Ratio (+/-) of κ2 with and without 4-6 TM [3] [fold]	second-order rate constant (κ2) of inhibition (thrombin (free thrombin) [4]) [M⁻¹ s⁻¹]	second-order rate constant (κ2) of inhibition (Factor Xa) [M⁻¹ s⁻¹]	second-order rate constant (κ2) of inhibition (trypsin) [M⁻¹ s⁻¹]	second-order rate constant (κ2) of inhibition (thrombin (free thrombin) [5]) [M⁻¹ s⁻¹]	second-order rate constant (κ2) of inhibition (thrombin (free thrombin) [6]) [M⁻¹ s⁻¹]	Ratio to no TM (RTM) [7] [fold]	Ratio to no TM (4-6 TM) [8] [fold]
B1	1200	263	0.6	1.3e+06	260	10000	2000	4800	–	–
B2	20000	34	3.7	180000	1000	9500	5500	5300	90.7	3
B3	2500	210	0.7	630000	–	6100	3400	3000	–	–
